Values of other authors in PMC5641599 (Molecular Metabolism, 2017).
Like-named read-outs stand apart in the source and are kept apart here.

Legend:
[1] = tested on: MC4R variants; conditions: cited from earlier work
[2] = tested on: MC4R variants; conditions: cited from earlier work; remark: listed apart in the source
[3] = tested on: MC4R variants; conditions: ref Larsen LH, J Clin Endocrinol Metab, 2005, cited from earlier work
[4] = ref Rong R, Clin Endocrinol, 2006
[5] = COS-7 cell line, ref Hughes DA, Hum Genet, 2009
[6] = COS-7 cell line, ref Brumm H, Obesity, 2012
[7] = ref Wang ZQ, Biochim Biophys Acta, 2011
[8] = COS-7 cell line, ref Hinney A, J Clin Endocrinol Metab, 2006
[9] = ref Fan ZC, J Cell Mol Med, 2009
[10] = ref Srinivasan S, J Clin Invest, 2004
[11] = ref Xiang Z, Biochemistry, 2010
[12] = ref Lubrano-Berthelier C, J Clin Endocrinol Metab, 2006

Substance: C40R
- Cell surface expression [1, 4]: 100 % of WT
- Basal activity ([2]; COS-7 cell line, ref Tarnow P, J Biol Chem, 2003): 112 % of WT
- Basal activity [2, 4]: 157 % of WT

Substance: C40Y
- Cell surface expression [1, 5]: 49 % of WT
- Basal activity [2, 5]: 108 % of WT

Substance: D37G
- Cell surface expression ([1]; ref Hughes DA, Hum Genet, 2009): 100 % of WT
- Basal activity ([2]; ref Hughes DA, Hum Genet, 2009): 83 % of WT

Substance: E61X (MVNSTHRGMHTSLHLWNRSSYRLHSNASESLGKGYSDGGCYEQLFVSPEVFVTLGVISLL; nonsense E61X; UniProt P32245 1-60, looked up, fragment)
- Cell surface expression [1, 6]: 5 % of WT

Substance: G32E
- Basal activity ([2]; limited data, ref Ahituv N, Am J Hum Genet, 2007): 70 % of WT

Substance: G34A
- Cell surface expression ([1]; ref Moore BS, PLoS One, 2014): 85 % of WT

Substance: MT-II
- cAMP Emax - Ligand no.2 (% of WT) ([3]; MC4R A219V, ligand no.2 MT-II): 34.0 % of WT
- cAMP Emax - Ligand no.2 ([3]; MC4R S36Y): 86.0 % of WT

Substance: Q307X
- Cell surface expression [1, 6]: 40 % of WT
- Cell surface expression ([1]; ref Santoro N, BMC Med Genet, 2009): 31 % of WT
- Cell surface expression [1, 7]: 20 % of WT
- Basal activity [2, 7]: 20 % of WT

Substance: R7C
- Cell surface expression [1, 8]: 100 % of WT
- Cell surface expression [1, 9]: 45 % of WT
- Basal activity [2, 8]: 133 % of WT
- Basal activity [2, 9]: 100 % of WT

Substance: R7H
- Cell surface expression [1, 10]: 80 % of WT
- Cell surface expression [1, 11]: 100 % of WT

Substance: R18C
- Cell surface expression [1, 12]: 115 % of WT
- Cell surface expression [1, 10]: 95 % of WT
- Cell surface expression ([1]; ref Xiang Z, Biochemistry, 2006): 45 % of WT
- Basal activity [2, 12]: 36 % of WT

Substance: R18H
- Cell surface expression [1, 12]: 150 % of WT
- Cell surface expression [1, 10]: 95 % of WT
- Cell surface expression [1, 11]: 85 % of WT
- Basal activity [2, 12]: 46 % of WT
